This passage reports abundance fitness results from the Human Domainome abundance scans (Beltran et al. 2025).

± gives the uncertainty stated by the source.

A short description of this series: abundance fitness (aPCA) (normalised: wild type 0, dead -1); higher = more abundant; growth selection in yeast, the domain comes from the species named. Conditions: Homo sapiens.
Turning to “Ventral anterior homeobox 1 F119A, Q5SQQ9”, the abundance fitness is -0.74 ± 0.21. The substance “Ventral anterior homeobox 1 F119E, Q5SQQ9” yielded an abundance fitness of -1.16 ± 0.3. “Ventral anterior homeobox 1 F119G, Q5SQQ9”: the abundance fitness was -0.857 ± 0.16. For “Ventral anterior homeobox 1 F119K, Q5SQQ9” the value was -0.837 ± 0.31; for “Ventral anterior homeobox 1 F119N, Q5SQQ9”, -0.658 ± 0.32. For “Ventral anterior homeobox 1 F119P, Q5SQQ9” the value was -0.978 ± 0.34; for “Ventral anterior homeobox 1 F119Q, Q5SQQ9”, -0.727 ± 0.39; for “Ventral anterior homeobox 1 F119R, Q5SQQ9”, -0.88 ± 0.17.

In the case of “Ventral anterior homeobox 1 F119S, Q5SQQ9”, the abundance fitness is -0.64 ± 0.18. “Ventral anterior homeobox 1 F119T, Q5SQQ9” displayed an abundance fitness of -0.856 ± 0.29. As to “Ventral anterior homeobox 1 L115D, Q5SQQ9”, the abundance fitness is -0.822 ± 0.4. Take “Ventral anterior homeobox 1 L115E, Q5SQQ9”: the abundance fitness was -0.719 ± 0.29. For “Ventral anterior homeobox 1 L115G, Q5SQQ9” the value was -0.763 ± 0.16; for “Ventral anterior homeobox 1 L115K, Q5SQQ9”, -0.821 ± 0.41.

Regarding “Ventral anterior homeobox 1 L115N, Q5SQQ9”, the abundance fitness is -0.637 ± 0.35.

In the case of “Ventral anterior homeobox 1 L115R, Q5SQQ9”, the abundance fitness was -0.918 ± 0.16. The substance “Ventral anterior homeobox 1 Q111A, Q5SQQ9” displayed an abundance fitness of -0.226 ± 0.13. For “Ventral anterior homeobox 1 Q111C, Q5SQQ9” the value was -0.214 ± 0.18; for “Ventral anterior homeobox 1 Q111D, Q5SQQ9”, -0.564 ± 0.18; for “Ventral anterior homeobox 1 Q111E, Q5SQQ9”, -0.393 ± 0.17.

“Ventral anterior homeobox 1 Q111F, Q5SQQ9” displayed an abundance fitness of -0.954 ± 0.32. Consider “Ventral anterior homeobox 1 Q111G, Q5SQQ9”, for which the abundance fitness is -0.715 ± 0.11. “Ventral anterior homeobox 1 Q111H, Q5SQQ9” registered an abundance fitness of -0.355 ± 0.17. For “Ventral anterior homeobox 1 Q111I, Q5SQQ9” the value was -0.231 ± 0.27; for “Ventral anterior homeobox 1 Q111K, Q5SQQ9”, -0.599 ± 0.28; for “Ventral anterior homeobox 1 Q111L, Q5SQQ9”, -0.807 ± 0.17. The result for “Ventral anterior homeobox 1 Q111M, Q5SQQ9” reads -0.31 ± 0.19; that for “Ventral anterior homeobox 1 Q111N, Q5SQQ9”, -0.262 ± 0.24. For “Ventral anterior homeobox 1 Q111P, Q5SQQ9” the value was -0.716 ± 0.21; for “Ventral anterior homeobox 1 Q111R, Q5SQQ9”, -0.732 ± 0.12. The substance “Ventral anterior homeobox 1 Q111S, Q5SQQ9” yielded an abundance fitness of -0.727 ± 0.14. The result for “Ventral anterior homeobox 1 Q111T, Q5SQQ9” reads -0.068 ± 0.16. As for “Ventral anterior homeobox 1 Q111V, Q5SQQ9”, the abundance fitness is -0.048 ± 0.12.

“Ventral anterior homeobox 1 Y113D, Q5SQQ9” registered an abundance fitness of 0.287 ± 0.2. Substance “Ventral anterior homeobox 1 Y113E, Q5SQQ9” returned an abundance fitness of 0.209 ± 0.17.

Regarding “Ventral anterior homeobox 1 Y113G, Q5SQQ9”, the abundance fitness turned out to be 0.01 ± 0.093.

“Ventral anterior homeobox 1 Y113H, Q5SQQ9” yielded an abundance fitness of -0.096 ± 0.25. The result for “Ventral anterior homeobox 1 Y113K, Q5SQQ9” reads -0.004 ± 0.24; that for “Ventral anterior homeobox 1 Y113N, Q5SQQ9”, 0.168 ± 0.38; that for “Ventral anterior homeobox 1 Y113R, Q5SQQ9”, -0.012 ± 0.097.
